Target: T1, PD-L1 (human, UniProt Q9NZQ7 19-290)
T1 construct: whole, on cells; Endogenous PD-L1 on in vitro generated human DCs (iDCs, mDCs); also called B7-H1; B7-4
Assay: confocal imaging of co-localization on the surface of human mDCs

T1 sequence (Q9NZQ7 19-290): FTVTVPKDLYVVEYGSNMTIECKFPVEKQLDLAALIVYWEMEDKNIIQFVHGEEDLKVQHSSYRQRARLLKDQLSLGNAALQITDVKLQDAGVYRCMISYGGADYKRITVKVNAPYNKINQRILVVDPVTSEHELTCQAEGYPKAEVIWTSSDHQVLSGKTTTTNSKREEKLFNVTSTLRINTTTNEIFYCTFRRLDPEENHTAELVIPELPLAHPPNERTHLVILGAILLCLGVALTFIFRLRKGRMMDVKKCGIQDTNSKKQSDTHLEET

B1: CD80 (ligand, human, UniProt P33681 35-288, looked up)
chain: VIHVTKEVKEVATLSCGHNVSVEELAQTRIYWQKEKKMVLTMMSGDMNIWPEYKNRTIFDITNNLSIVILALRPSDEGTYECVVLKYEKDAFKREHLAEVTLSVKADFPTPSISDFEIPTSNIRRIICSTSGGFPEPHLSWLENGEELNAINTTVSQDPETELYAVSSKLDFNMTTNHSFMCLIKYGHLRVNQTFNWNTTKQEHFPDNLLPSWAITLISVNGIFVICCLTYCFAPRCRERRRNERLRRESVRPV
notes: whole, on cells; Endogenous CD80 on human DCs, seen by confocal imaging; also called B7-1; B7.1
binding result: binds
